Where two headings read alike, the source gives them in different places. Bounds are passed on as bounds.

The test system of one test is CPfull (wild type CP). The test is described as follows: Actin polymerization assay (barbed end elongation from spectrin-actin seeds): inhibition of CP capping. The class given is biochemical, chicken. Conditions: actin 1.2 µM (5% pyrene-labeled), 7.2 nM CPfull, 25°C (Figure 9F). The method, then:
(A) Superposition of the C-termini of the peptides. CD Phe505 and CK Arg169 are shown as stick models. The conserved proline at the C-terminus of the motifs is shown as balls. (B) CD2AP constructs used for biochemical assays. (C) CARMIL constructs used for biochemical assays. […] Actin (1.2 µM, 5% pyrene-labeled) was polymerized from spectrin-actin seeds in the presence of 3.6 nM CPfull (D), 10 nM CPβΔC (E), or 7.2 nM CPfull (F) with various concentrations of CARMIL peptides or GST-CA constructs.
The barbed end elongation assay from spectrin-actin seeds was performed essentially as previously described. Briefly, G-actin was stored in G-buffer (0.2 mM CaCl2, 0.2 mM ATP, 0.5 mM DTT and 10 mM imidazole, pH 7.0). At 90 s prior to polymerization, the Ca^2+ was replaced with Mg^2+, by the addition of 1/10 volume of 10 mM EGTA and 1 mM MgCl2 to G-actin. […] Actin polymerization was measured by monitoring the pyrene-actin fluorescence (excitation 370 nm; emission 410 nm) at 25°C.
(0.16 MB TIF) Click here for additional data file.

A further test relates to CP (β) D67N. The test is described as follows: SPR binding of mutant CP to immobilized GST-CD56 / GST-CA92. The arrangement: species or system chicken. Conditions: analyte CP (β) D67N, 20°C, pH 7.0. The method, then:
(§1) Expression vectors for chicken CPfull and CPΔβC were constructed in pETDuet-1 by PCR, using pET-3d/CP [38] as the template. CP was expressed in E. coli Rosetta2 (DE3) and was purified as described. V-1 (human), expressed in E. coli Rosetta2 (DE3) as a GST-fusion protein, was affinity-purified and the tag was removed. Synthetic peptides derived from CARMIL proteins were obtained from Invitrogen. For crystallization, CP was incubated with a 1.2–2.0-fold molar excess of V-1 or CARMIL peptides at 4°C for 2 h, followed by gel filtration to purify the complexes. Expression vectors for the GST-CA constructs were prepared from the mouse cDNA clone as previously described. Vectors for GST-CD fragments were constructed by PCR cloning using a human whole brain cDNA library (Clontech) as the template. Amplified DNA fragments were cloned into pGEX-6P-1. GST-fusion proteins were expressed in E. coli Rosetta2 (DE3) cells and affinity-purified using glutathione sepharose resin. Mutations were introduced using a Quikchange mutagenesis kit (Stratagene). Actin was prepared from rabbit skeletal muscle, as previously described, and was further purified by gel filtration chromatography. Pyrene labeled-actin was prepared as described. Spectrin-actin seeds were prepared from rabbit red blood cells, as previously described.
(§2) The binding affinities of CP for V-1 or CARMIL proteins were evaluated by surface plasmon resonance measurements with Biacore 3000 or Biacore 2000 instruments (GE Healthcare). GST-fusion proteins (GST-V-1, GST-CA, or GST-CD) were immobilized onto a CM5 sensor chip up to 200 RU (response units; 200 pg/mm^2) via anti-GST antibodies. CP at various concentrations in running buffer (50 mM KCl, 1 mM MgCl2, 0.005% Tween-20, 10 mM imidazole, pH 7.0) was perfused over the chip at 20°C, at a flow rate of 20 µl/min. Response curves were obtained by subtracting the background signal generated simultaneously on a control flow cell with immobilized GST. To measure the effect of the CARMIL peptides on the facilitation of CP/V-1 dissociation (in Figure 11C and 11D), we used the “co-inject” mode for successive injections of the peptides followed by CP. Kinetic parameters were determined by fitting the sensorgrams to a simple 1∶1 binding model, using the Bia-evaluation software (GE Healthcare). KD values were obtained from the kinetic rate constants. […] KD values were evaluated by plotting these values against the concentrations of CP.

The test system of a further test is CP (β) D44N. Described as above. The arrangement: species or system chicken. Conditions: analyte CP (β) D44N, 20°C, pH 7.0. The method, then: as §1, §2
The test system of the next test is CP (β) D63N. Described as above. Conditions: analyte CP (β) D63N, 20°C, pH 7.0. The arrangement: species or system chicken. The method, then:
as §1, §2

Another test has as its system CP (β) Y64F. The description is as above. The arrangement: species or system chicken. Conditions: analyte CP (β) Y64F, 20°C, pH 7.0. The method, then:
as §1, §2

Test [1] deals with CP. The test is described as follows: SPR binding of CP to immobilized GST-CD2AP / GST-CARMIL fragments. The arrangement: species or system chicken. Conditions: 20°C; for kon / koff: SPR (Biacore), CP perfused, 1:1 binding model; for kon: GST-fusion immobilized via anti-GST antibody on CM5 chip, 50 mM KCl, 1 mM MgCl2, 0.005% Tween-20, 10 mM imidazole pH 7.0; for koff: GST-fusion immobilized. The method, then: as §1, §2
In general terms: Surface plasmon resonance follows binding to a sensor surface in real time, without labels.

Test [2] relates to CP. As to conditions: estimated, cited from earlier work. From the text:
How do CARMIL proteins inhibit the capping activity of CP in an allosteric manner? […] We propose that CARMIL proteins inhibit CP in a similar manner (Figure 13C); CARMIL proteins limit the conformational distribution of CP to ...

Test [3] concerns the target CP. Conditions: ref Fujiwara, et al.; cited from earlier work. From the text: We tested the importance of the C-terminal flanking regions of the CP-binding motif using a binding assay (Table 2; the constructs used for the measurement are shown in Figure 9B). […] In the second CP binding site in the CP/CBR115 complex, human CARMIL Val1034 (corresponding to mouse CA1038), which is missing in GST-76, forms multiple interactions with CP α-subunit residues. Thus, the absence of this key valine in GST-CA76 results in the lower CP binding affinity compared with the full active CARMIL fragments.

B1: GST-CA92: GST fusion of mouse CARMIL residues 962–1053 (protein)
chain: FPSVRQEKRSSGLISELPSEEGRRLEHFTKLRPKRNKKQQPTQAAVCTISILPQDGEQNGLMGRVDEGVDEFFTKKVTKMDCKRSSSRSSDA
modifications: left off: GST, end not stated, kept
For orientation: koff means the rate constant with which the complex falls apart. What is called kon is the rate constant with which the complex forms. Lower therefore signals slow association. As for B1, in the test on CPfull (wild type CP), the “CP inhibitory activity of GST-CARMIL constructs” value is recorded as “strongest CP inhibitory effect”. The koff was greater than 0.1 s⁻¹ in the test on CP (β) D67N; greater than 0.1 s⁻¹ with CP (β) D44N; greater than 0.1 s⁻¹ in the test with CP (β) D63N; 0.0046 s⁻¹ in the test with CP (β) Y64F; 0.0052 s⁻¹ in the test on CP [1] (pH 7.0). The Kon in the test with CP (β) Y64F amounted to 460000 M⁻¹ s⁻¹. Besides, in the test on CP [1], the kon is 1.6e+06 M⁻¹ s⁻¹.

B2: GST-CA76: GST fusion of mouse CARMIL residues 962–1037 (protein)
chain: FPSVRQEKRSSGLISELPSEEGRRLEHFTKLRPKRNKKQQPTQAAVCTISILPQDGEQNGLMGRVDEGVDEFFTKK
modifications: left off: GST, end not stated, kept
B2: the on-rate (kon) in the test on CP [1] came to 230000 M⁻¹ s⁻¹. Moreover, in the test with CP [1] (pH 7.0), the koff was 0.019 s⁻¹.

B3: CARMIL: multi-domain protein (∼150 kDa) that binds CP and uncaps filaments (protein, UniProt Q6EDY6 1-1374, looked up)
F-actin-uncapping protein …: MTDESSDVPRELMESIKDVIGRKIKISVKKKVKLEVKGDRVENKVLVLTSCRAFLLSARIPSKLELTFSYLEIHGVICHKPAQMVVETEKCNMSMKMVSPEDVSEVLAHIGTCLRRIFPGLSPLRIMKKVSMEPSERLASLQALWDSQTLAEPGPCGGFSQMYACVCDWLGFSYKEEVQWDVDTIYLTQDTRELNLQDFSHLEHRDLIPIIAALEYNQWFTKLSSKDLKLSTDVCEQILRVVSRSNRLEELVLENAGLRIDFAQKLAGALAHNPNSGLHTINLAGNSLEDRGVSSLSIQFAKLPKGLKHLNLSKTSLSPKGVNSLCQSLSANPLTASTLTHLDLSGNALRGDDLSHMYNFLAQPNTIVHLDLSNTECSLEMVCSALLRGCLQCLAVLNLSRSVFSHRKGKEVPPSFKQFFSSSLALIQINLSGTKLSPEPLKALLLGLACNHSLKGVSLDLSNCELGHCLRSGGAQVLEGCIAEIHNITSLDISDNGLESDLSTLIVWLSKNRSIQHLALGKNFNNMKSKNLTPVLDNLVQMIQDEDSPLQSLSLADSKLKAEVTIIINALGSNTSLTKVDISGNGMGDMGAKMLAKALQINTKLRTVIWDKNNITAQGFQDIAVAMEKNYTLRFMPIPMYDAAQALKTNPEKTEEALQKIENYLLRNHETRKYLQEQAYRLQQGIVTSTTQQMIDRICVKVQDHLNSLRACGGDAIQEDLKAAERLMRDAKNSKTLLPNLYHVGGASWAGASGLSSSPIQETLESMAGEVTRVVDEQLKDLLESMVDAAETLCPNVMRKAHIRQDLIHASTEKISIPRTFVKNVLLEQSGIDILNKISEVKLTVASFLSDRIVDEILDSLSSSHRKLANHFSRLNKSLPQREDLEVELVEEKPVKRAILTVEDLTEVERLEDLDTCMMTPKSKRKSIHSRMLRPVSRAFEMEFDLDKALEEVPIHIEDPPFPSVRQEKRSSGLISELPSEEGRRLEHFTKLRPKRNKKQQPTQAAVCTISILPQDGEQNGLMGRVDEGVDEFFTKKVTKMDCKRSSSRSSDAHELGEGDEKKKRDSRRSGFLNLIKSRSRSERPPTVLMTEELSSPKGAMRSPPVDTTRKEIKAAEHNGAPDRTEEIKTPEPLEEGPAEEAGRAERSDSRGSPQGGRRYVQVMGSGLLAEMKAKQERRAACAQKKLGNDVISQDPSSPVSCNTERLEGGATVPKLQPGLPEARFGSGTPEKNAKAEPRVDGGCRSRSSSSMPTSPKPLLQSPKPSPSARPSIPQKPRTASRPEDTPDSPSGPSSPKVALLPPILKKVSSDKERDGQNSSQSSPRSFSQEASRRSWGPAQEYQEQKQRSSGKDGHQGSKCSDSGEEAEKEFIFV
As for B3, the “affinity for barbed end-bound CP lower than for free CP” value in the test with CP [2] (ref 23) was 10- to 100 fold; with CP [2] (ref 29), 200 fold.

B4: mCAH3: mCAH3 fragment, mouse CARMIL residues 965-1038 (protein, UniProt Q6EDY6 965-1038, looked up, fragment)
chain: VRQEKRSSGLISELPSEEGRRLEHFTKLRPKRNKKQQPTQAAVCTISILPQDGEQNGLMGRVDEGVDEFFTKKV
The term Kd denotes the concentration at which binding is half-saturated. With B4, the Kd on CP [3] was roughly 1 nM.

B5: GST-CA63: GST fusion of mouse CARMIL residues 962–1024 (protein)
chain: FPSVRQEKRSSGLISELPSEEGRRLEHFTKLRPKRNKKQQPTQAAVCTISILPQDGEQNGLMG
modifications: left off: GST, end not stated, kept
Consider B5, for which the koff with CP [1] (pH 7.0) was greater than 0.1 s⁻¹. Further, on CP [1] (SPR, pH 7.0), the “KD (in words)” value was “micromolar range”.

(Values after PMC2897767, “Two Distinct Mechanisms for Actin Capping Protein Regulation—Steric and Allosteric Inhibition” (PLoS Biology, 2010).)
